US20080318834A1, “Antimicrobial Lactoferrin Compositions for Surfaces, Cavities, and Foodstuff” (priority 2004, published 2008)

Key:
[1] = tested on: E. coli ATCC 43895 (E. coli O157:H7); test: in vitro Tryptic Soy Broth (TSB) growth inhibition assay (Bioscreen C, OD 420-580 nm); assay type: cell-based, Escherichia coli
[2] = tested on: Ps. aeruginosa (Pak strain); test: in vitro growth inhibition assay in Luria Broth Base (LB) (Bioscreen C, OD 420-580 nm); assay type: cell-based, Pseudomonas aeruginosa; conditions: 2% (w/v) LF in PBS, sample pH of 1.7 or lower; 200 CFU's/well (200 CFU's:1 mg LF); FIG. 1B

B1: lactoferrin (protein, UniProt P02788 20-710, looked up)
Lactotransferrin: GRRRSVQWCAVSQPEATKCFQWQRNMRKVRGPPVSCIKRDSPIQCIQAIAENRADAVTLDGGFIYEAGLAPYKLRPVAAEVYGTERQPRTHYYAVAVVKKGGSFQLNELQGLKSCHTGLRRTAGWNVPIGTLRPFLNWTGPPEPIEAAVARFFSASCVPGADKGQFPNLCRLCAGTGENKCAFSSQEPYFSYSGAFKCLRDGAGDVAFIRESTVFEDLSDEAERDEYELLCPDNTRKPVDKFKDCHLARVPSHAVVARSVNGKEDAIWNLLRQAQEKFGKDKSPKFQLFGSPSGQKDLLFKDSAIGFSRVPPRIDSGLYLGSGYFTAIQNLRKSEEEVAARRARVVWCAVGEQELRKCNQWSGLSEGSVTCSSASTTEDCIALVLKGEADAMSLDGGYVYTAGKCGLVPVLAENYKSQQSSDPDPNCVDRPVEGYLAVAVVRRSDTSLTWNSVKGKKSCHTAVDRTAGWNIPMGLLFNQTGSCKFDEYFSQSCAPGSDPRSNLCALCIGDEQGENKCVPNSNERYYGYTGAFRCLAENAGDVAFVKDVTVLQNTDGNNNEAWAKDLKLADFALLCLDGKRKPVTEARSCHLAMAPNHAVVSRMDKVERLKQVLLHQQAKFGRNGSDCPDKFCLFQSETKNLLFNDNTECLARLHGKTTYEKYLGPQYVAGITNLKKCSTSPLLEACEFLRK
time for which E. coli growth was inhibited ([1]; 2% (w/v) LF in PBS, test sample pH below 2.5, 530 CFU's:1 mg LF, 37° C., FIG. 1A): at least 60 hours | antimicrobial activity on E. coli O157:H7 as function of EDTA concentration ([1]; 2% (w/v) LF in demi water, 0-1 mM EDTA, pH about 5 not adjusted, 270 CFU's:1 mg LF, FIG. 2): increases with increasing EDTA concentration | time for which growth of Pseudomonas aeruginosa is inhibited [2]: at least 45 hours
